# Assay results: FireProtDB (doi:10.1021/bi9909041)
# Several values for one entry are separate records, joined by “and”; a condition that tells them apart may be missing. Equal entries are not always repeated.
# Conditions: Escherichia coli (strain K12), pH 7.8, 25 °C, Urea, Potassium phosphate 10 mM, transition: 2, whole UniProt chain shown
protein,measurement,setting,value
"Tryptophan synthase alpha chain wild type, P0A877 (protein) MERYESLFAQLKERKEGAFVPFVTLGDPGIEQSLKIIDTLIEAGADALELGIPFSDPLADGPTIQNATLRAFAAGVTPAQCFEMLALIRQKHPTIPIGLLMYANLVFNKGIDEFYAQCEKVGVDSVLVADVPVEESAPFRQAALRHNVAPIFICPPNADDDLLRQIASYGRGYTYLLSRAGVTGAENRAALPLNHLVAKLKEYNAAPPLQGFGISAPDQVKAAIDAGAAGAISGSAIVKIIEQHINEPEKMLAALKVFVQPMKAATRS",denaturant m value,Absorbance,1.12 kcal/mol/M
same,denaturant midpoint (higher = more stable),Absorbance,3.73 M
same,unfolding free energy,Absorbance,4.16 kcal/mol
same,denaturant m value,CD,1.11 kcal/mol/M and 1.09 kcal/mol/M
same,denaturant midpoint (higher = more stable),CD,3.67 M and 3.65 M
same,unfolding free energy,CD,4.08 kcal/mol and 3.96 kcal/mol
same,denaturant m value,Fluorescence,1.09 kcal/mol/M
same,denaturant midpoint (higher = more stable),Fluorescence,3.81 M
same,unfolding free energy,Fluorescence,4.14 kcal/mol
